Assay results published in patent US20240124590A1 (ULTRAHUMAN EIGHT, published 2024).

Legend:
[1] = target: T1, cynomolgus monkey PD1 human Fc tagged recombinant protein (cynomolgus monkey, UniProt Q15116 25-170 (human entry), limits assumed); assay: direct ELISA, Fab on coated PD1-Fc
T1 construct: also called cyPD1-Fc; cyPD-1-Fc; not shown: human Fc tag
T1 chain: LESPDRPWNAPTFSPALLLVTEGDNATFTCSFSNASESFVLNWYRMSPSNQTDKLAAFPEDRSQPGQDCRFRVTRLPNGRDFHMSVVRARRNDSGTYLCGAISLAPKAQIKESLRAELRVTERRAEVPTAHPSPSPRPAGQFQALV
Experimental: (§1) Binding and cross-reactivity of the lead panel to the recombinant proteins was initially assessed by binding ELISA. The human PD1 human Fc tagged recombinant protein and the cynomolgus monkey PD1 human Fc tagged recombinant protein were coated to the surface of MaxiSorp™ flat-bottom 96 well plate at 1 μg/ml. […] The Fabs were detected using mouse anti-c-myc antibody followed by donkey anti-mouse IgG conjugated to horseradish peroxidase. The IgGs were detected using the mouse anti-human IgG conjugated to horseradish peroxidase. Binding signals were visualized with 3,3′,5,5′-Tetrannethylbenzidine Substrate Solution (TMB) and the absorbance measured at 450 nm.
(§2) The top 12 clones were also expressed as Fab protein from E. coli expression, purified to homogeneity, quantified, and applied in direct ELISA binding analyses on human PD1-Fc and cyno PD1-Fc (FIGS. 2A&B, Table 5).

[2] = target: T2, human PD1 human Fc tagged recombinant protein (human, UniProt Q15116 25-170, limits assumed); assay: direct ELISA, Fab on coated PD1-Fc
T2 construct: also called huPD1-Fc; huPD-1-Fc; not shown: human Fc tag
T2 sequence (Q15116 25-170 limits assumed): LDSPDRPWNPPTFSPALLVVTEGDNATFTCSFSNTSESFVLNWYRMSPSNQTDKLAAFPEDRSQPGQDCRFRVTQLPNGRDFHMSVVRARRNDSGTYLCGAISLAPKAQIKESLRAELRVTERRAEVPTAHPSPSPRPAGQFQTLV
Experimental: as §1, §2

[3] = target: T3, human PD1 expressed on cells (human, UniProt Q15116 25-288); assay: cell-based or functional assay
T3 sequence (Q15116 25-288 limits assumed): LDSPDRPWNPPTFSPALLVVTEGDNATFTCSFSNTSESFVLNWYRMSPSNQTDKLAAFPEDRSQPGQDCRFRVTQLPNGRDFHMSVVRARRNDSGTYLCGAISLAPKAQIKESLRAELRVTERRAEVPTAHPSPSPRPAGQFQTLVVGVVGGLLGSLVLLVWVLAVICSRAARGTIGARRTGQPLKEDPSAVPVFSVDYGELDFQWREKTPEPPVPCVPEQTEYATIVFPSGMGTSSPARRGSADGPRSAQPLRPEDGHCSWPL

[4] = target: T4, human ULBP2 (UL16 binding protein 2) on transfected HEK293 cells (human, UniProt Q9BZM5 26-217); assay: cell microarray re-array, transfected HEK293
T4 sequence: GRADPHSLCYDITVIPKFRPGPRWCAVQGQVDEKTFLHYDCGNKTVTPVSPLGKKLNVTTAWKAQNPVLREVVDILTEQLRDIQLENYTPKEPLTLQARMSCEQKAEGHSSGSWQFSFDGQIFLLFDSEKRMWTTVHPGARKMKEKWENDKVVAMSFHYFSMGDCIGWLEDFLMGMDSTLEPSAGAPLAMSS
Experimental: (§3) Antibody binding was detected using AF647 fluorescent secondary anti-human IgG1 antibody. Primary hits (duplicate spots) were identified by analysing fluorescence (AF647 and ZsGreen1) on ImageQuant. Vectors encoding all hits were sequenced to confirm their correct identities. […] Slides were analysed as above. Flow cytometry confirmation screen: Expression vectors encoding ZsGreen1 only, or ZsGreen1 and PD1, FZDS, KDR or ULBP2, were transfected into human HEK293 cells. Each live transfectant was incubated with […] of each of the test antibodies and the Isotype control antibody. Cells were washed, and incubated with the same AF647 anti-human IgG Fc detection antibody as used in the cell microarray screens. Cells were again washed, and analysed by flow cytometry using an Accuri flow cytometer (BD). A 7AAD live/dead dye was used to exclude dead cells, and ZsGreen1-positive cells (i.e. transfected cells) were selected for analyses.

[5] = target: T5, human FZD5 (frizzled class receptor 5) on transfected HEK293 cells (human, UniProt Q13467 27-585); assay: cell microarray re-array, transfected HEK293
T5 construct: also called FZDS; FZ5
T5 sequence (Q13467 27-585 limits assumed): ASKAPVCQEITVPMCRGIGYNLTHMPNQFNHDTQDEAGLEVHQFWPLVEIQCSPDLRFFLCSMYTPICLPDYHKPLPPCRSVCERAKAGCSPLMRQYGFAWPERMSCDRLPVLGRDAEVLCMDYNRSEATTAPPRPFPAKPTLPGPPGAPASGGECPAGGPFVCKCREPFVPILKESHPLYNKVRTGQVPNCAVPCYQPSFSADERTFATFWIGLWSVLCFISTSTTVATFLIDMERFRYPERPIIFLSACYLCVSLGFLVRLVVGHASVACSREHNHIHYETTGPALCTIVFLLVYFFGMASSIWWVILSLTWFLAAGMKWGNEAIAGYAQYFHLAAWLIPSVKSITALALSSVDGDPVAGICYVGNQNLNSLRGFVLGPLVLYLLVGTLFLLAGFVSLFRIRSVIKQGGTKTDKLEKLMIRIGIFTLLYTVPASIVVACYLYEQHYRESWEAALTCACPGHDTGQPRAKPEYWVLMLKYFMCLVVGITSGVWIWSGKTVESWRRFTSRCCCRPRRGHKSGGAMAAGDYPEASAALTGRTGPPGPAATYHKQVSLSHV
Experimental: as §3

[6] = target: T6, human KDR (VEGFR2) on cells (human, UniProt P35968 20-1356); assay: cell microarray re-array, transfected HEK293
T6 construct: Transfected HEK293 cells (arrays, flow cytometry) and human VEGFR2 reporter cells
T6 sequence (P35968 20-1356 limits assumed): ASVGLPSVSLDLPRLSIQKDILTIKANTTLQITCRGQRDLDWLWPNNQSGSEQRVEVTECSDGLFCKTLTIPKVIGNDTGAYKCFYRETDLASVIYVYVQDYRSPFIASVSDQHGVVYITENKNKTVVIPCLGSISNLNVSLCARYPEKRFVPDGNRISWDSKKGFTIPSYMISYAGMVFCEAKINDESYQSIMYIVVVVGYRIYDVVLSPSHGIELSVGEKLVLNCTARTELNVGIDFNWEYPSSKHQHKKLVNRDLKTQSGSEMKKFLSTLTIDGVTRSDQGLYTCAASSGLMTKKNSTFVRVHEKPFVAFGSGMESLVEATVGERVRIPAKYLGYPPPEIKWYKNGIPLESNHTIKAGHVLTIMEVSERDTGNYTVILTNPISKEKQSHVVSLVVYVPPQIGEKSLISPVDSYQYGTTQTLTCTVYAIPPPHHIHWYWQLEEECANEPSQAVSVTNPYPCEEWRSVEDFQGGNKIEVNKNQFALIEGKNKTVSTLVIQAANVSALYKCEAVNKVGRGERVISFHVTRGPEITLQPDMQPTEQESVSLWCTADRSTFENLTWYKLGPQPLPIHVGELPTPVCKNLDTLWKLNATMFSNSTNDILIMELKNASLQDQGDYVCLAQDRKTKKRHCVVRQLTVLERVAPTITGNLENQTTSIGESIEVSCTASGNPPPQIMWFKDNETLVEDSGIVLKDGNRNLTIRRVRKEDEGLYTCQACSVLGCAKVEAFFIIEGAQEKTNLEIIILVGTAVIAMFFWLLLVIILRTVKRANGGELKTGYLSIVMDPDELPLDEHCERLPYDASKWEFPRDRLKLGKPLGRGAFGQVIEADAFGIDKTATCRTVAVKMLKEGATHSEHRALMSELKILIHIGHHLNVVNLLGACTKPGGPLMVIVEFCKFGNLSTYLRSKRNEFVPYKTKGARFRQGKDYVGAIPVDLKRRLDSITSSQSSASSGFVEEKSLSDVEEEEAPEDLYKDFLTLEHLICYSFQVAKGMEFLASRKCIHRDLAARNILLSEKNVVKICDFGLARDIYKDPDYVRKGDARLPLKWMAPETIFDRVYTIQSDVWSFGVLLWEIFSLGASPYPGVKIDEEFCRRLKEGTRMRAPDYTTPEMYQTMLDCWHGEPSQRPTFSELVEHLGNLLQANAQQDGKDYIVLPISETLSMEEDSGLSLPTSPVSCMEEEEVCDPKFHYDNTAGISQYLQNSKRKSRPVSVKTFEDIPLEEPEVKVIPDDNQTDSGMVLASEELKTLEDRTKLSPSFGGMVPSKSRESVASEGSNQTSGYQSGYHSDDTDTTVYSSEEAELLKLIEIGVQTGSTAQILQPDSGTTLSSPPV
Experimental: as §3

[7] = target: T7, biotinylated human PD1-His/AviTag (human, UniProt Q15116 25-170, limits assumed, biotinylated); assay: Alphascreen competition vs IgG1-Mab005 (humanized)
T7 construct: Alphascreen antigen; whole entry named; also called biotinylated monomeric human PD1; not shown: His/AviTag
T7 sequence (Q15116 25-170 limits assumed): as the sequence (Q15116 25-170 limits assumed) above
Experimental: The AlphaScreen assay (Perkin Elmer) was performed in a 25 μl final volume in 384-well white microtiter plates (Greiner). The reaction buffer contained 1×PBS pH 7.3 (Oxoid, Cat. nr. BRO014G) and 0.05% (v/v) Tween® 20 (Sigma, Cat. nr. P9416). Purified IgG samples were titrated in three fold serial dilutions starting at 500 nM final concentration and incubated with biotinylated human PD1-His/AviTag at 0.6 nM final concentration for 20 minutes at room temperature. […] Followed by addition of the Streptavidin Donor beads at 20 μg/ml (final concentration) and incubation for 30 minutes at room temperature. The emission of light was measured in the EnVision multilabel plate reader (Perkin Elmer) and analysed using the EnVision manager software. Values were reported as Counts Per Second (CPS) and corrected for crosstalk.

[8] = target: T8, human PD1 His tagged (monomeric) (human, UniProt Q15116 25-170, limits assumed); assay: SPR (Biacore), IgG captured, monomeric PD1-His analyte
T8 construct: Soluble monomeric analyte; whole entry named; also called monomeric human PD1; not shown: His tag
T8 sequence (Q15116 25-170 limits assumed): as above
Experimental: (§4) Affinity (KD) of purified IgGs was determined via SPR with antigen in-solution on a Biacore 3000 (GE). A mouse anti-human antibody (CH1 specific) was immobilized on a CM5 Sensor Chip to a level of 2000 RU in acetate buffer at pH 4.5 using amine coupling following the Wizard instructions for two channels. One channel was used for background signal correction. The standard running buffer HBS-EP pH 7.4 was used. Regeneration was performed with a single injection of 10 μl of 10 mM Glycine at pH 1.5 at 20 μl/minute. IgG samples were injected for 2 minutes at 50 nM at 30 μl/min followed by and off-rate of 60 seconds. […] The obtained sensorgrams were analysed using the Biacore 3000 evaluation (BIAevaluation) software. The KD was calculated by simultaneous fitting of the association and dissociation phases to a 1:1 Langmuir binding model.
(§5) Biacore analyses of binding affinity was performed for all IgGs to solution-phase, monomeric human and cyno PD1 proteins.

[9] = target: T9, cynomolgus monkey PD1 His tag (monomeric) (cynomolgus monkey, UniProt Q15116 25-170 (human entry), limits assumed); assay: as above
T9 construct: Soluble monomeric analyte; whole entry named; also called monomeric cyno PD1; not shown: His tag
T9 chain: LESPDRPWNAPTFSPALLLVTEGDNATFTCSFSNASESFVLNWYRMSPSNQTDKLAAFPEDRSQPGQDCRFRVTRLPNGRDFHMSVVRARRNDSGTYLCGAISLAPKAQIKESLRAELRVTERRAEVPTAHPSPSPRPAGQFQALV
Experimental: as §4, §5

[10] = target: T1, cynomolgus monkey PD1 human Fc tagged …; assay: direct ELISA, IgG1null on coated PD1-Fc
Experimental: as §1
(§6) The purified IgGs described above were then tested for binding to human and cyno PD1-Fc in direct titration ELISA format. […] As the ELISA EC50 values for directly binding IgGs are strongly influenced by avidity, rather than true 1:1 binding affinity, we then proceeded to perform higher-sensitivity, solution-phase epitope competition and Biacore binding affinity determinations, as outlined below.

[11] = target: T2, human PD1 human Fc tagged recombinant …; assay: direct ELISA, IgG1null on coated PD1-Fc
Experimental: as §1, §6

[12] = target: T10, cyno PD1 expressed on CHO-K1 cells (cynomolgus monkey, UniProt Q15116 25-288 (human entry)); assay: flow cytometry, PD1 CHO-K1 cells
T10 construct: also called cyno PD1+ CHO cells
T10 chain: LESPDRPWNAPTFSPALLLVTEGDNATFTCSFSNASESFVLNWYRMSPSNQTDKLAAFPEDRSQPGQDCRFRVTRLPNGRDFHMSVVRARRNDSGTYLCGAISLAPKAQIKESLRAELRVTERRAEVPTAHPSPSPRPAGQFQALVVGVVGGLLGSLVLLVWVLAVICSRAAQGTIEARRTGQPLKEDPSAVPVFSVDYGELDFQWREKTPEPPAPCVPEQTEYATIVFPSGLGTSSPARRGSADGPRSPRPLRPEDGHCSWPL
Experimental: (§7) Purified IgGs were tested in FACs for binding to human and cyno PD1 expressed on CHO-K1 stable cell lines and CHO-K1 wild-type cells. […] Binding of IgGs was detected with a mouse anti-human IgG conjugated to FITC. Results were analyzed by examining the Mean Fluorescence Intensity (MFI) of 10000 cells per sample in the BL-1 channel detector of a flow cytometer (Attune™ NxT Acoustic Focusing Cytometer, Invitrogen/ThermoFisher Scientific).
(§8) Antibodies to PD1 were analysed for concentration-dependent binding at the cell surface via flow cytometry. Initial analyses were performed on CHO cells stably-transfected with human or cyno PD1.

[13] = target: T3, human PD1 expressed on cells; assay: flow cytometry, PD1 CHO-K1 cells
Experimental: as §7, §8

[14] = target: T1, cynomolgus monkey PD1 human Fc tagged …; assay: direct ELISA, IgG1null on coated PD1-Fc
Experimental: as §1, §6

[15] = target: T2, human PD1 human Fc tagged recombinant …; assay: direct ELISA, IgG1null on coated PD1-Fc; remark: listed apart in the source
Experimental: as §1, §6

Binder | EC50 [1] | EC50 [2] | EC50 (ng/ml), IgG1null blockade of human PD1/PD-L1 [3] | binding result [4] | binding result [5] | binding result [6] | IC50 [7] | Kd [8] | koff [8] | kon [8] | Kd [9] | koff [9] | kon [9] | EC50 [10] | EC50 [11] | EC50 [12] | EC50 [13] | EC50 [14] | EC50 [15]
Fab06D02 (Fab, V domains shown, Human Fab from E. coli, His/c-myc tags) VH: EVQLVESGGGLVQPGGSLRLSCAASGFTFSSYLMSWVRQAPGKGLEWVATISGGGSETYYVDSVKGRFTISRDNAKNSLYLQMNSLRAEDTAVYYCARQLYGFDYWGQGTLVTVSS VL: not shown | 1.01 nM | 0.743 nM | – | – | – | – | – | – | – | – | – | – | – | – | – | – | – | – | –
Fab-Mab005 (Fab, V domains shown, Purified monomeric human Fab from E. coli, His tag, detected by c-myc; also called Mab005 (humanized) Fab) VH: EVQLVESGGGLVQPGGSLRLSCAASGFTFSSYMMSWVRQAPGKGLEWVATISGGGANTYYPDSVKGRFTISRDNAKNSLYLQMNSLRAEDTAVYYCARQLYYFDYWGQGTTVTVSS VL: DIQMTQSPSSLSASVGDRVTITCLASQTIGTWLTWYQQKPGKAPKLLIYTATSLADGVPSRFSGSGSGTDFTLTISSLQPEDFATYYCQQVYSIPWTFGGGTKVEIK | – | 1.25 nM | – | – | – | – | – | – | – | – | – | – | – | – | – | – | – | – | –
IgG1-11 (antibody, V domains shown, Designer; human IgG1null + Ckappa; also called Antibody IgG1-11) VH: EVQLVESGGGLVQPGGSLRLSCAASGFTFSSYLMSWVRQAPGKGLEWVATISGGGSEKYYVDSVKGRFTISRDNAKNSLYLQMNSLRAEDTAVYYCARQLYFFDYWGQGTLVTVSS VL: not shown | – | – | 172 ng/mL | no binding (tested: 5 µg/ml) | no binding (tested: 5 µg/ml) | no binding (tested: 5 µg/ml) | 1.41 nM | 3.01 nM | 0.0004 s⁻¹ | 130000 M⁻¹ s⁻¹ | 7.1 nM | 0.00073 s⁻¹ | 100000 M⁻¹ s⁻¹ | 0.0498 nM | 0.0492 nM | 0.861 nM | 0.978 nM | – | –
IgG1-14 (antibody, V domains shown, Designer; human IgG1null + Ckappa; also called Antibody IgG1-14) VH: EVQLVESGGGLVQPGGSLRLSCAASGFTFSSYLMSWVRQAPGKGLEWVATISGGGSEKYYVDSVKGRFTISRDNAKNSLYLQMNSLRAEDTAVYYCARQLYAFDYWGQGTLVTVSS VL: not shown | – | – | 212 ng/mL | no binding (tested: 5 µg/ml) | no binding (tested: 5 µg/ml) | no binding (tested: 5 µg/ml) | 3 nM | 2.57 nM | 0.00046 s⁻¹ | 180000 M⁻¹ s⁻¹ | 6.9 nM | 0.00097 s⁻¹ | 140000 M⁻¹ s⁻¹ | 0.0959 nM | 0.125 nM | 1.33 nM | 1.87 nM | – | –
IgG1-12H04 (antibody, V domains shown, Library-derived; human IgG1null + Ckappa) VH: EVQLVESGGGLVQPGGSLRLSCAASGFTFSSYLMSWVRQAPGKGLEWVATISGGGAEKYYVDSVKGRFTISRDNAKNSLYLQMNSLRAEDTAVYYCARQLYGFDYWGQGTLVTVSS VL: not shown | – | – | 188 ng/mL | – | – | – | 4.01 nM | 1.6 nM | 0.00032 s⁻¹ | 200000 M⁻¹ s⁻¹ | 4.7 nM | 0.00064 s⁻¹ | 140000 M⁻¹ s⁻¹ | – | – | 2.17 nM | 1.95 nM | 0.12 nM | 0.112 nM
Fab12H04 (Fab, V domains shown, Human Fab from E. coli, His/c-myc tags) VH: EVQLVESGGGLVQPGGSLRLSCAASGFTFSSYLMSWVRQAPGKGLEWVATISGGGAEKYYVDSVKGRFTISRDNAKNSLYLQMNSLRAEDTAVYYCARQLYGFDYWGQGTLVTVSS VL: not shown | 1.4 nM | 0.708 nM | – | – | – | – | – | – | – | – | – | – | – | – | – | – | – | – | –
